Experimental data from patent publication US20180185504A1 (Regeneron, published 2018).
Numbering of substitutions follows the chain as printed. In names and notes the source's numbering stands.

B1: H1H6793P (antibody, human IgG1, V domains shown)
VH: EVQLVESGGGLVQPGGSLRLSCAASGFSFSIYAMSWFRQAPGKGLEWVSAINGRGDGTHYADSVKGRFTISRDNSKTTLYLQMSSLRAEDTAVYYCAKPVMSTNGFDIWGQGTMVTVSS
VL: DIQMTQSPSTLSASVGDRVTITCRASQSISSWLAWYQLKPGKAPKLLIYKASNLESGVPSRFSGSGSGTEFTLTISSLQPDDFATYYCQQYNIYWTFGQGTKVEIK
notes: Human IgG1 Fc (H1H)
B2: H1H6797P (antibody, human IgG1, V domains shown)
VH: EVQLVESGGGLVQPGGSLRLSCIVSGFTFSGSWMSWVRQLPGKGLEWVANIKEDGSDSYYVDSVEGRFTISRDNAKSSLYLQMNSLRVDDTAVYFCARARTVPLHYWGQGTLVTVSS
VL: DIQMTQSPSTLSASVGDRVTITCRASQSINIWLAWYQQKPGKAPKLLIYRASYLESGVPSSFAGGGSGTEFTLTISSLQPDDFGTYYCQHYNSYPFTFGQGTKLEIK
notes: Human IgG1 Fc (H1H)
B3: H1H6795P (antibody, human IgG1, V domains shown)
VH: QVQLVQSGAEVKKPGASVKVSCKASGYTFGTSGITWVRQAPGQGLEWMGWSSAYNGKTDYAQKFQDRVTMTTDTSTTTGYMEMRSLTSDDTAVYYCTTVVRRPFDFWGQGTLVTVSS
VL: DIQMTQSPSSLSASVGDRVTITCRASQDINNFLAWFQQKPGKAPKSLIYAASSLQSGVPSKFSGGGSGTDFALTISSLQPEDFATYYCQQYSSYPITFGQGTRLEIK
notes: Human IgG1 Fc (H1H)
B4: H1H6800P (antibody, human IgG1, V domains shown)
VH: EVQLVESGGGLVQPGRSLRLSCAASGFTFDGYAMHWVRQGPGKGLEWVSGISWYSDTLGYADSVKGRFTISRDNAKNSLYLQMNSLRTEDTAFYYCAKISSSGWAFDYWGQGTLVTVSS
VL: EIVLTQSPGTLSLSPGERATLSCRASHSVSSAYLAWYQQKPGQTPRLLIYGTSSRATGIPDRFSGSGSGTDFTLTISRLEPEDFAVYYCQQYGSSPLFTFGPGTKVDIK
notes: Human IgG1 Fc (H1H)
B5: H1H6792P (antibody, human IgG1, V domains shown)
VH: EVQLVESGGGLVQPGRSLRLSCAASGFTLDDHAVHWVRQAPGKGLEWVSGISWNSVYIDYADSVKGRFTIFRDNAKNSLYLQMNSLRAEDTAFYYCARDIEGARDYWGQGTLVTVSS
VL: DIQMTQSPSSLSASVGDRVTITCRASQGIRNDLGWYQQKPGKAPKRLIYAASSLQSGVPSRFSGSGYGTEFTLTISSLQPEDFAPYYCLQHNSYPLTFGGGTKVEIK
notes: Human IgG1 Fc (H1H)

Target: T1, hPRLR.mmh (soluble monomeric human PRLR) (human)
T1 construct: called soluble monomeric PRLR protein
T1 chain: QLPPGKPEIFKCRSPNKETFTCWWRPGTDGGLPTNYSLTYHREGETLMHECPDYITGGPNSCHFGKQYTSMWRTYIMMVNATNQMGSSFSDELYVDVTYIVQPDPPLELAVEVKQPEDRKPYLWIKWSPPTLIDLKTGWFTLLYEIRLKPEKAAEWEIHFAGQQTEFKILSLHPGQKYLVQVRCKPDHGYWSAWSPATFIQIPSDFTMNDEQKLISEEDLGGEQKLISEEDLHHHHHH
Assay: SPR Biacore, 25 C, mAb capture
Protocol: (§1) Measurements were conducted on a T200 Biacore instrument. Kinetic association (kₐ) and dissociation (kd) rate constants were determined by processing and fitting the data to a 1:1 binding model using Scrubber 2.0 curve fitting software.

Binder | Kd | T½ | koff | kon
B1 | 1.41 nM | 35 min | 0.000332 s⁻¹ | 235000 M⁻¹ s⁻¹
B2 | 1.73 nM | 6 min | 0.00196 s⁻¹ | 1.13e+06 M⁻¹ s⁻¹
B3 | 1.52 nM | 7 min | 0.00177 s⁻¹ | 1.17e+06 M⁻¹ s⁻¹
B4 | 0.972 nM | 28 min | 0.000409 s⁻¹ | 421000 M⁻¹ s⁻¹
B5 | 2.45 nM | 15 min | 0.000794 s⁻¹ | 324000 M⁻¹ s⁻¹

Target: T2, hPRLR.mFc (soluble dimeric human PRLR) (human)
T2 construct: dimeric PRLR construct
T2 chain: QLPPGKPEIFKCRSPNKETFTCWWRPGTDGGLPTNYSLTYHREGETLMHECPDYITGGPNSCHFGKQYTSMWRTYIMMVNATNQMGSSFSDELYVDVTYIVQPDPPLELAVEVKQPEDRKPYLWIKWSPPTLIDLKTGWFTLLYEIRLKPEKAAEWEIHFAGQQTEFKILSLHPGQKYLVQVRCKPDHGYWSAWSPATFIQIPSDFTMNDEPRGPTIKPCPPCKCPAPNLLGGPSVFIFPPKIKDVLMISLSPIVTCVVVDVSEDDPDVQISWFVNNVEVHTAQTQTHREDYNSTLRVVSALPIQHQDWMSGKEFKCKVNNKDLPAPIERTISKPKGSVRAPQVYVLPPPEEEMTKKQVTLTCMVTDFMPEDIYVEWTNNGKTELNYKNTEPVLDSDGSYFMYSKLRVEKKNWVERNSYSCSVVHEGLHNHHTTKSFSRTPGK
Assay: SPR Biacore, 25 C, mAb capture
Protocol: as §1

Binder | Kd | T½ | koff | kon
B1 | 0.331 nM | 153 min | 7.57e-05 s⁻¹ | 229000 M⁻¹ s⁻¹
B2 | 0.122 nM | 97 min | 0.000119 s⁻¹ | 982000 M⁻¹ s⁻¹
B3 | 0.0545 nM | 137 min | 8.41e-05 s⁻¹ | 1.54e+06 M⁻¹ s⁻¹
B4 | 0.184 nM | 133 min | 8.69e-05 s⁻¹ | 473000 M⁻¹ s⁻¹
B5 | 0.313 nM | 122 min | 9.48e-05 s⁻¹ | 303000 M⁻¹ s⁻¹

Target: T3, macaca fascicularis (mf) PRLR.mmh (soluble monomeric monkey PRLR) (Macaca fascicularis)
T3 construct: called soluble monomeric PRLR protein
T3 chain: T1 chain with I76V, A110T, I125M, I158T, T207I
Assay: SPR Biacore, 25 C, mAb capture
Protocol: as §1

Binder | Kd | T½ | koff | kon
B1 | 2.22 nM | 29 min | 0.000393 s⁻¹ | 177000 M⁻¹ s⁻¹
B2 | 3.12 nM | 6 min | 0.00209 s⁻¹ | 670000 M⁻¹ s⁻¹
B3 | 2.33 nM | 6 min | 0.00197 s⁻¹ | 844000 M⁻¹ s⁻¹
B4 | 1.25 nM | 30 min | 0.00038 s⁻¹ | 303000 M⁻¹ s⁻¹
B5 | 4.17 nM | 12 min | 0.000983 s⁻¹ | 236000 M⁻¹ s⁻¹
